Tests used:
[1] = molecular target: SARS-CoV-2 RBD protein (321–591) (SARS-CoV-2) (UniProt P0DTC2)
[2] = molecular target: SARS-CoV-2 RBD protein (321–591) (SARS-CoV-2) (UniProt P0DTC2); assay: SPR

Work on P2B-2F6 (antibody) yielded an other [1] of 37.5 µg/mL and a Kd [2] of 810 pM.

Reference: paper PMC8442604
